We go through two molecules from patent publication US20250154500A1 (SEOUL NATIONAL UNIVERSITY R AND DB FOUNDATION, published 2025).

For this assay, the target named is T1, FLAG-tagged ZCCHC2 ΔN (201-1,178 a.a) (human, UniProt Q9C0B9 201-1178).
T1 construct: Transiently expressed in HeLa ZCCHC2 knockout cells; also called pCK-Flag-ZCCHC2 (201-1178); not shown: FLAG tag and any linker to it; The plasmid name pCK-Flag-ZCCHC2 puts the tag at the N-terminus
Put plainly: anti-FLAG co-immunoprecipitation from HeLa ZCCHC2 KO cells, western blot. How it is done: Data are normalized against the value of the wild-type sample and represented as mean±SEM (n=3). * indicates p<0.05, with a two-sided Student's t-test performed. […] Full-length ZCCHC2 protein and its truncated mutants (ΔC, ΔN) were compared for their ability to interact with TENT4 proteins. TENT4A and GAPDH were detected on the same gel, whereas the other proteins were analyzed on separate gels with the same amounts of samples. Cross-reacting bands are indicated by asterisks.
For co-IP experiment, parental cells and TENT4 dKO cells on a 150 μl plate were lysed on ice for 20 minutes using Buffer A (100 mM KCl, 0.1 mM EDTA, 20 mM HEPES [pH 7.5], 0.4% NP-40, 10% glycerol) containing 1 mM DL-Dithiothreitol (DTT), 1× protease inhibitor, and RNase A (Thermo, EN0531), and then centrifuged. For immunoprecipitation, 12.5 μg of antibody (NMG, anti-TENT4A, and anti-TENT4B) conjugated to protein A and G sepharose beads (1:1 mixture, total 20 μl) was used with 1 mg of the lysates. After incubation at 4° C. for 2 hours, the beads were washed, boiled in 20 μl of 2×SDS buffer, and loaded onto a 4-12% (Novex) SDS-PAGE gel with the ladder (Thermo, 26616 and 26619). For domain co-IP experiment, full-length ZCCHC2, truncated construct of ZCCHC2, and negative construct having FLAG tag were transfected in ZCCHC2KO cells, and the cells were lysed within 2 days. […]
Background: Immunoblotting shows a protein as a band on a membrane.

T1 sequence (Q9C0B9 201-1178 limits assumed, stated change not applied): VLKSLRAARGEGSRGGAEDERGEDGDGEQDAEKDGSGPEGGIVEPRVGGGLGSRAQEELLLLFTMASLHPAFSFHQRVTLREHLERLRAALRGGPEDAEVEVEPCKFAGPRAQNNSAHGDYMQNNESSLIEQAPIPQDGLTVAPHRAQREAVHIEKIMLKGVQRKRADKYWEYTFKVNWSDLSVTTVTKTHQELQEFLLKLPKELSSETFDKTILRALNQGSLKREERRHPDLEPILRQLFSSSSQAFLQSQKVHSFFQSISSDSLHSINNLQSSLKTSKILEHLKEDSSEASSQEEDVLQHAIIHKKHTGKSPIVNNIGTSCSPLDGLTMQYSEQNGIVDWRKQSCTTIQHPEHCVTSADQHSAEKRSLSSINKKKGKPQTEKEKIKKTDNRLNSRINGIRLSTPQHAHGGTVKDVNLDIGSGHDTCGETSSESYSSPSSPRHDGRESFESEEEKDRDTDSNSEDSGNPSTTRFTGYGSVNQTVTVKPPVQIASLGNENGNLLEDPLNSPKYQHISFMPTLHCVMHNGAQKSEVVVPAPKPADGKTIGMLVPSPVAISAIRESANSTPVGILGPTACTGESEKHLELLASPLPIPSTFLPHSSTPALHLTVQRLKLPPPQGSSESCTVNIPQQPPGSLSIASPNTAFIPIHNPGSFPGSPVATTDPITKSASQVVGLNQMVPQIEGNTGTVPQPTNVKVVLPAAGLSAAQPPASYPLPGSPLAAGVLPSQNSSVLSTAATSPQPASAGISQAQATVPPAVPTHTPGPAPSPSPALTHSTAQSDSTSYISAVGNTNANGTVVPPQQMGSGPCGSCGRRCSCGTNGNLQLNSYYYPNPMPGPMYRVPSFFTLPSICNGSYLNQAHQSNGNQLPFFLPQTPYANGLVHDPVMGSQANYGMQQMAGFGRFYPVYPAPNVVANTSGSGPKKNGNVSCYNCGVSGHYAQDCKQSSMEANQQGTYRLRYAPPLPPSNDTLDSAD

B1: TENT4A (enzyme, human, UniProt Q5XG87 1-792, looked up)
chain: MDPRVAWIQPEQKGPANALWMQIWETSQGVGRGGSGFASYFCLNSPALDTAAAAGAAGRGSGGLGPALPAASPPPPGPTAPAALPPALLTALGPAAEGARRLHKSPSLSSSSSSSSSNAESGTESPGCSSSSSSSASLGRPGGGRGGAFFNFADGAPSAPGTANGHPGPRGPAPAGSPSQHQFHPGRRKRENKASTYGLNYLLSGSRAAALSGGGGPGAQAPRPGTPWKSRAYSPGIQGLHEEIIDFYNFMSPCPEEAAMRREVVKRIETVVKDLWPTADVQIFGSFSTGLYLPTSDIDLVVFGKWERPPLQLLEQALRKHNVAEPCSIKVLDKATVPIIKLTDQETEVKVDISFNMETGVRAAEFIKNYMKKYSLLPYLILVLKQFLLQRDLNEVFTGGISSYSLILMAISFLQLHPRIDARRADENLGMLLVEFFELYGRNFNYLKTGIRIKEGGAYIAKEEIMKAMTSGYRPSMLCIEDPLLPGNDVGRSSYGAMQVKQVFDYAYIVLSHAVSPLARSYPNRDAESTLGRIIKVTQEVIDYRRWIKEKWGSKAHPSPGMDSRIKIKERIATCNGEQTQNREPESPYGQRLTLSLSSPQLLSSGSSASSVSSLSGSDVDSDTPPCTTPSVYQFSLQAPAPLMAGLPTALPMPSGKPQPTTSRTLIMTTNNQTRFTIPPPTLGVAPVPCRQAGVEGTASLKAVHHMSSPAIPSASPNPLSSPHLYHKQHNGMKLSMKGSHGHTQGGGYSSVGSGGVRPPVGNRGHHQYNRTGWRRKKHTHTRDSLPVSLSR
notes: Endogenous protein of HeLa (human) cells; also called PAPD7; TRF4-1
B1: the binding result is given as “no binding”.

B2: TENT4B (enzyme, human, UniProt Q8NDF8 1-572, looked up)
chain: MYRSGERLLGSHALPAEQRDFLPLETTNNNNNHHQPGAWARRAGSSASSPPSASSSPHPSAAVPAADPADSASGSSNKRKRDNKASGGRAAGGGRADGGGVVYSGTPWKRRNYNQGVVGLHEEISDFYEYMSPRPEEEKMRMEVVNRIESVIKELWPSADVQIFGSFKTGLYLPTSDIDLVVFGKWENLPLWTLEEALRKHKVADEDSVKVLDKATVPIIKLTDSFTEVKVDISFNVQNGVRAADLIKDFTKKYPVLPYLVLVLKQFLLQRDLNEVFTGGIGSYSLFLMAVSFLQLHPREDACIPNTNYGVLLIEFFELYGRHFNYLKTGIRIKDGGSYVAKDEVQKNMLDGYRPSMLYIEDPLQPGNDVGRSSYGAMQVKQAFDYAYVVLSHAVSPIAKYYPNNETESILGRIIRVTDEVATYRDWISKQWGLKNRPEPSCNGPVSSSSATQSSSSDVDSDATPCKTPKQLLCRPSTGNRVGSQDVSLESSQAVGKMQSTQTTNTSNSTNKSQHGSARLFRSSSKGFQGTTQTSHGSLMTNKQHQGKSNNQYYHGKKRKHKRDAPLSDLCR
notes: Endogenous protein of HeLa (human) cells; also called PAPD5; TRF4-2
Turning to B2, the binding result is “no binding”.
